Source: patent US20260256923, “NEW RECRUITMENT ELEMENT OF UBIQUITIN LIGASE AND USE THEREOF” (SHENZHEN LINGGENE BIOTECH CO., LTD., published 2026)

Columns and labels:
Nucleolin (NCL) = Nucleolin (NCL) (Homo sapiens, UniProt P19338 P19338:2-710); assay: pulldown; 400 nM oligo, with MDM2, 4 C; conditions: tags: ACROBiosystems NUL-H5253, label: 5'-biotin
Experimental: (§1) 6 μg/mL recombinant human NCL and 6 μg/mL recombinant human MDM2 were mixed well and incubated at 4° C. for 7 h. Subsequently, 400 nM CRO, AS1411, or iSN04 labeled by biotin at the 5′ end was added, and the mixture was incubated at 4° C. for 6 h. Streptavidin agarose gel beads (purchased from cytiva, Cat. No.: 17511301) were added, and the mixture was further incubated at 4° C. overnight. The gel beads were washed 4 times with a TBST buffer, and an SDS-PAGE protein loading buffer (purchased from Beyotime, Cat. No.: P0015) was added. The mixture was heated to 100° C. and held for 10 min. After centrifugation, the supernatant was collected. The pull-down product was then detected by western blot assay.

MDM2 [1] = target: T1, MDM2 (Homo sapiens, UniProt Q00987 Q00987:1-491); assay: pulldown; NCL present; conditions: tags: R&D Systems E3-202-050; label: 5'-biotin
Experimental: as §1

MDM2 [2] = target: T1, MDM2; assay: pulldown; NCL present; iSN04 blocks NCL-MDM2 interaction; conditions: tags: R&D Systems E3-202-050; label: 5'-biotin; weak G4 only with K+
Experimental: as §1

T1 sequence (Q00987 whole entry, one chain of several): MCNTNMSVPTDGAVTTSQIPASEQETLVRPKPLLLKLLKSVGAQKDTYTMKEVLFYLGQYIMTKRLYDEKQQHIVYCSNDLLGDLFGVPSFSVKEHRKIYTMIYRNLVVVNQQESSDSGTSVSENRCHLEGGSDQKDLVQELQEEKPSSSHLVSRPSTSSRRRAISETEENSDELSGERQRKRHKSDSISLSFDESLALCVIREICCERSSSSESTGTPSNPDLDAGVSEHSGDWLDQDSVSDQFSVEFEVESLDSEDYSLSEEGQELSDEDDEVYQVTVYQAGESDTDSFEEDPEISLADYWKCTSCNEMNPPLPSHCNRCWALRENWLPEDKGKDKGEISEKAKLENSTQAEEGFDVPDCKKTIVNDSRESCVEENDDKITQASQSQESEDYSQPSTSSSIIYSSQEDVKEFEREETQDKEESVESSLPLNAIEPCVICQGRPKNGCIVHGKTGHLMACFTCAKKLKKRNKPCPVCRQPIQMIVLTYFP
Sequence of Nucleolin (NCL) (P19338 2-710, one chain of several): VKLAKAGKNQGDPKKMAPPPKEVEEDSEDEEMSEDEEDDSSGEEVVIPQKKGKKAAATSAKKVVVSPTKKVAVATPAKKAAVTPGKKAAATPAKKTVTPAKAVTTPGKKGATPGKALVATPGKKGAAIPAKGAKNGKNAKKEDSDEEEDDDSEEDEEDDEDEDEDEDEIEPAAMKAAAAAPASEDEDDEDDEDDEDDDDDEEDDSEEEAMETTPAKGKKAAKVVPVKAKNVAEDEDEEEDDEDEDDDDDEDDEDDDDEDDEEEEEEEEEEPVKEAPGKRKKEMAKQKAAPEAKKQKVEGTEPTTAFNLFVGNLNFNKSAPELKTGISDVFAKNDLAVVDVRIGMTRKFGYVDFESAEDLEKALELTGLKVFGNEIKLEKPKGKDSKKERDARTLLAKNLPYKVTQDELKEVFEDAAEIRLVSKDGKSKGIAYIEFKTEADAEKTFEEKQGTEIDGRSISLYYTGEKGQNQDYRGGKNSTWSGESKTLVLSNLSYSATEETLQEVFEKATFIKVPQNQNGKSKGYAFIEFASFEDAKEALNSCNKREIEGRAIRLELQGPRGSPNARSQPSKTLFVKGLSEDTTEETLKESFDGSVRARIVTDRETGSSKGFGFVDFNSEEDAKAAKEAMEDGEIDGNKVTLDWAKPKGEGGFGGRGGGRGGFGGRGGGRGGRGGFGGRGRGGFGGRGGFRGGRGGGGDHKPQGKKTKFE

## CCTCCTCCTCCTTCTCCTCCTCCTCC (ssDNA) [CRO]
Nucleolin (NCL)
  binding result: no binding
MDM2 [1]
  binding result: no binding

## AGATTAGGGTGAGGGTGA (ssDNA) [iSN04]
MDM2 [2]
  binding result: no binding
Nucleolin (NCL); weak G4 only with K+
  binding result: binds
